Assay: yeast display, Sf9 membrane polyspecificity reagent, FACS + sequencing; frameworks hold sequencing errors
Summary of the method: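 After 36–48 hours of galactose induction, yeast (Saccharomyces cerevisiae BJ5465) displaying a synthetic nanobody library were stained at 4 °C for 1 hour with 10% biotinylated, detergent-solubilized Sf9 membrane reagent. Streptavidin microbeads enriched the stained cells before FACS sorting into low and high (top ~1%) gates on anti-HA and streptavidin fluorescence. Each clone's polyreactivity label reflects its gate of origin.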

Row | Sequence | polyreactivity (PSR sort gate)
1 | QVQLVESVGGLVQAGGSLRLSCAASGSIFVTYAMGWYRQAPGKERELVAVITWGGGSTYYADSVKGRFTISRDNAKNTVYLQMNSLIPEDTAVYYCAKDSYYYRRDVNVDYWGQGTQVTVSS | low polyreactivity
2 | QVQLVESGGGLVQAGGSLRLSCAASGIIFAHYAMGWYRQAPGKERELVAAISSSGATTYYADSVKGRFTISRDNAKNTVYFQMNSLKPEDTAVYYCNTETYHVRRLFDYWGQGTQVTVSS | low polyreactivity
3 | QVQLVESGGGLVQAGGSLRLSCAASGSTFYQYAMGWYRQAPGKERELVAAISWDSGSTYYADSVKGRFTISRDNAKNTVYLQMNSLKPEDTAVYYCAASWYGYYDCYAVEYDYLGQGTQVTVSS | low polyreactivity
4 | QVQLVESGGGLVQAGGSLRLSCAASGSTFYINAMRWYRPAPGKERELVAAISWSGGSTYYADSVKGRFTISRDNAKNTVYLQMNSLKPEDTAVYYCAADWYLGWSLDYDYWGQGTQVTVSS | low polyreactivity
5 | QVQLVESGGGLVQAGGSLRLSCAASGSISTWYAMGWYRQATGKERELVAAINSGDSTYYADSVKGRFTISRDNAKNTVYLQMNSLKPEDTAVYYCAASSYSSKPFDYWGQGTQVTVSS | high polyreactivity
6 | QVQLVESGGGLVQAGGSLRLSCAASGSTFVQYAMGWYRQAPGKERELVAAIRGRGDSTYYADSVKGRFTISRDNAKNTVYLQMNSLKPEDTAVYYCAARGQGSRGMYYWGQGTQVTVSS | low polyreactivity
7 | QLQHVESGGGLVQAGGSLRLSCAASGSTFYRNAKGWSRQAPGKEREFVADITLGGGSTYYADSVKGRFTISRDHAKNTVYLQMKSLKPEDTAVYFCAVDYWQLNYDYWGQGTQVTVSS | low polyreactivity
8 | QVQLVESGGGLVQAGGSLRLSCAASGRTFKSYAMGWYRQAPGKERELVAAITWSGGSTYYADSVKGRFTISRDNAKNTVYLQMNSLKPEDTAVYYCAADSVYYYWYGYDYWGQGTQVTVSS | low polyreactivity
9 | QVQLVESGGGLVQAGGSLRLSCAASGRTLGGYAMVWYRQAPGTERELVAAITRRGGSTYYADSVKGRFTISRDNAKNTVYLQMYSLKQEDTAVYYCAARYLYSDEYWDKFYYWGQGTQVTVSS | high polyreactivity
10 | QVHLVESGGGLVQAGGSLRLSCAASGNIFYVYVMGWYRQAPGKERELVAYITSGASTYYSDSVKGRFTISRDNAKNTVYFQMNSLKPEDTAVYYCAAEALGGAGAYSTLYIYDYWGEGTQVTVSS | low polyreactivity
11 | QVQLVESGGGLFQAGGSLRLSCAASGITFERYTMGWYRQAPGKERELVAAIRGSGGTYYADSVKGRFTISRENAKNTVYLQMNSLKPEDTAVYYCNAVLWVYYHWPYDYWGQGTQVTVSS | high polyreactivity
12 | QVQLVESGGGLVQAGGSLRLSCAASGRIFTINAMGWYRQAPGKDRELVAAITGSAASTYYADSVKGRFTISRDNAKNTVYLQMYSLKPEDTAVYYSNARPAGRGYNYWGQGTQVTVSS | high polyreactivity
13 | QVQLVESGGGLDQAGGSLRLSCAASGSTFTSYDMGWYIQAPGKERELVAAITISSGGTYYADSVKGRFTISRDTAKNTVYLQMNSLKPEDTEVYYCAADIFADASYDYWGLGTQVTVSS | low polyreactivity
14 | QVQLVESGGGLVQAGGSLRLSCAASGSIFQGNAMGWYRQAPGKERELVAAISWSGDSTYYADSVKGRFTISRDNAKNTVYLQMNSLKPEDTAVYYCNAEWTRDFYEYDYWGQGTQVTVSS | low polyreactivity
15 | QVQLVESGGALVQAGGTLRLSGAASGIIFDGYAMGWYRQAPGKEREFVAVISSSGGTTYYADSVKGRFTISRDNAKNTVYLQMNRLKPEDSAVYYCACVYVSLWPSATYWSGFGYWGQGTKVTVSS | low polyreactivity
16 | QVQHVESGGGLVQAGGSLRLSCAASGRTFGWYTMGWYRQAPGKEREFVAAISSSDTSTYYADSVKGRFTISRDNAKNTVYLQMNSLKPEDTAVYYCAADPPSWQWFVGYSYDYWGQGTQVTVSS | low polyreactivity
17 | QVQLVESGGGLVHAGGSLRLSCAASGLIFRGYAMGWYRQAPGKERELVAAISKSGGSTYYADSVKGRFTISRDNAKNTVYLQLNSLKPEDTAVYYCITDYVWKYFLSSQYDYWGQGTQVTVSS | high polyreactivity
18 | QVQLVESGGGLVQAGGSLRLSCAASGRIFDGYAMGWYRQAPGKERELVASISYDGGSTYYADSVQGRFTISRDNAKNTVYLQMNSLKPEDTAVYYCAAVYRRRSYTFYYWGQGTQVTVSS | high polyreactivity
19 | QVQLVESGGGLVQAGGSLRLSCAASGIIFGDNAMGWYRQAPGKERELVAAITIGGTSTYYADSVKGRFTISRDNAKNTVYLQMNSLKPEDTAVYYCAKTILYDCDYWGQGTQVTVSS | low polyreactivity
20 | QVQLVESGGGLVQAGGSLRLSCAASGSILGYYVMGWYRQAPGKERELVAAISWSSGSTYYADSVKGRFTISRDNAKNTVYLQMNSLKPEDTAVYYCNASNVYFWFVTLEFDYWGQGTQVTVSS | low polyreactivity
21 | QVQLVESGGGLVQAGGSLRLSCAASGRIFGYNAMGWYRQAPGKERELVASITRGGSTNYADSVKGRFTISRDNAKNTVYLQMNSLKPEDTAVYYCATRWPHYGGYYYWGQGTQVTVSS | high polyreactivity
22 | QVQLVESGGGLVQAGGSLRLSCAASGIIFYGYAMGWYRQAPGKERELVAAISSGGGTNYADSVKGRFTISRDNAKNTVYLQMNSLKPEDTAVYYCAAGGKKRDDYWGQGTQVTVSS | high polyreactivity

Row | Sequence | polyreactivity (PSR sort gate)
23 | QVQLVESGGVLVQAGGSLRLSCAASGSTFTTNAMGWYRQAPGKERELVARISRIGASTHYADSVKGRFTISRDNAKNTVYLQMNSLKPEDTAVYYCAKSKGTPGNFGYWGQGTQVTVSS | low polyreactivity
24 | QVQLVESGGGLVQAGGSLRLSCAASGSTFVLNAMGWYRQAPGKERELVAAITGSGSTKYADSVKGLFTISRDNAKNTVYLQMNSLKPEDTAVYYCATAAVYPIPFGYWGQGTQVTVSS | low polyreactivity
25 | QVQLVESGGGLVQAGGSLRLSCAASGFTFPLYAMGWYRQAPGKERELVAVISRSGGSTYYADSVKGRFTISRDNAKNTVYLQMNSLKPEDTAVYYCATRRRPQYNKYDYWGQGTQVTVSS | high polyreactivity
26 | QVLLQESGGLGQAGCSLPMSCAASGSISTALSMGWYRQAPGKERELVATISDGASTNYADSVKGRFTISRVNAKNTVYLQMNSLKPEDTEVYYCADQSQYRQDHRYWGQGTQVTVSS | high polyreactivity
27 | QVQLVESGGGLVQAGGSLRLSCAASGFILGYYAKGWSRQAPGKERELDAITSGDSTYYADSVKGRFTISRDTAKNTVYLQMNSLKPEDTAVYYCNAEASIERRYRGIIAVITRYDYWAQGTQVTVSS | high polyreactivity
28 | QVQLEESGGGLVQAGGSLRLSCAASGRTLSHYAKGWYRKAPGKERELVAAITRSGGSTYYADSVKGRFTISRDNAKNTVYLQMNRLKPEDTAVYYWNKTLYTSYDFWGQGTQVTVSS | low polyreactivity
29 | QVQLVESGGGLVQAGGRLRISCAASGFSFFSNAMGWYRQAPGKERELVAVIDRATSTYYADSVKGRFTISRDNAKNTVYLQMNSLKPEDTAVYYCNADGEEVYDFNYFLSFKGDYWGQGTQVTVSS | low polyreactivity
30 | QVQLVESGGGLVQAGGSLRLSCAASGITFSYNVMGWYRQAPGKERELVAAISDGGSTYYADSVKGRFTISRDNAKNTVYLQMNSLKPEDTAVYYCAADSPVDYLYALYLYVRDDYWGQGTQVTVSS | low polyreactivity
31 | QVQLVESGGGLVQAGGSLRLSCAASGSIFSYYAMGWYRQAPGKERELVAAITSGGSTYYADSVKGRFTISRDNAKNTVYLQMNSLKPEDTAVYYCAREKWPSQYDYWGQGTQVTVSS | low polyreactivity
32 | QVQLVASGGGLVQAGGSLRISCAASGRTITPYAMGWYRQAPGKERELVATISSGTSPNYADSVKGRFTISRDNAKNTVYLQMNSLIPEDTAVYYCAADGYTYKFDYWGQGTQVTVSS | low polyreactivity
33 | QVQLVESGGGLVQAGGSLRLSCAASGSILAGYAMGWYRQAPGKERELVAAISDSGGNTYYADSVKGRFTISRDTAKNTVYLQMNSLKPEDTAVYYCAADLGYGPLRELEYWGQGTQVNVSS | low polyreactivity
34 | QVQLLESGRGLVQAGGSLRLSCAPSGLTFRYMAMGWYIQAPGKERELVAAINSGGRTNYADSVKGRFTISRDNAKNTVFLQMNSLKPEDTAVYYCAAVRHWTVGWTYYYWGQGTQVTVSS | high polyreactivity
35 | QVQIVESGGRLVQAGGSLRLSCAASGLTFRRYAMGWYRQAPGKERELVASITYRGGSTYYADSVKARFTISRDNAKNTVYLQINSLKPEDTAVYHCNAKGQRNKRCRGYWGQGSQVTVSS | high polyreactivity
36 | QVQLVDSGGGLVQAGGSLRLSCAASGRIFDRNAMGWYRQAPGKERDLVARIDPGDDTNYADSVKGRFTISRDNAKNTVYLQMNSQKPEDTAVYYCATDPDYVLYRTAYYEYDYWGQGTQVTVSS | low polyreactivity
37 | QVQLVESGGGLVQAGGSLRLSCAASGSIFYVNGMGWYRQAPGKEREFVARITLSGTSTYYADSVKGRFTISRDNAKNTVYLQMNSLKPEDTAVSYCAAPYFTYGQDDDDYWGQGTQVTVSS | low polyreactivity
38 | QVQLVESGGGLVQAGGSLRLSCAASGSTFEPYAMGWYRQAPGKERELVATITLRGGTTNYADSVKGRFTISRDNAKNTVYLQMNSLKPEDTAVYYCNARKLTGYIRYRTGKMNYWGQGTQVTVSS | high polyreactivity
39 | QVQLVESGGGLVQAGGSLRLSCAASGLIFLDYAMGWYRQAPGKERELVAAISSSGGRTYYADSVKGRFTISRDNAKNTVYLQMNSLKPEDTAVYYCATGPNSYDYWGQGTQVTVSS | high polyreactivity
40 | QVQLVESGGGLVQAGASHRLSCAASGRIFGGYAMGSDRQAPGKERELVAAISSRGGSTYYADSVKGRFTISRDNAKNTVYLLMNSLKPEETAVYYCAADGRVKGWGQGTQVTVSS | high polyreactivity
41 | QVQLVESGGGLVQAGGSLRLSCAASGFTFSQYAMGWYRQAPGKERELVAAITFSGDSTYYADSVKGRFTISRDNAKNTVYLQMNSLKPEDTAVYYCNADDWWGGYDYWGQGTQVTVSS | low polyreactivity
42 | QVQLVESGGGLVQAGGSLRLSCAASGFIFHNYAMGWYRQAPGKESELVAVITLRGGSTYYADSVKGRCTISRDNAKNTVYLQMNSLKPEDTAVYYCATGNSKGRRTVRYGYWGQGTQVTVSS | high polyreactivity
43 | QVQLVESGGGIVQAGGSLRLSCAASGITLINYAMGWYRQAPGKERELVAAISTSGSSTYYADSVKGRFTISRDNAKNTVYLQMNSLKPEDTAVYYCAAELDVYSLFGYWGQGTQVTVSS | low polyreactivity

Source: the nanobody polyreactivity screen of Harvey et al. (2022)
